Data reported in patent US20210063414A1, “METHODS FOR PREVENTING AND/OR TREATING BONE LOSS CONDITIONS BY MODULATING IRISIN” (Dana-Farber Cancer Institute, Inc., priority 2018, published 2021).

Target: integrin αV/β5 (Homo sapiens, UniProt P06756+P18084)
Experiment: FAK phosphorylation in HEK293T cells with forced expression of integrin αV/β5
Format: cell-based
Parameters: expressed in transfected cells; host or cells: HEK293T
Conditions: HEK293T, forced expression of integrin αV/β5, irisin 5 minutes
Procedure: 100 nM irisin was incubated with 5 nM indicated his-tag integrins followed by immunoprecipitation using Ni-NTA agaroses. Precipitated integrins and co-precipitated irisin were analyzed by immunoblot analysis. […] HEK293T cells were seeded and incubated until 50% cell density. The cells were transfected with 0.1 μg plasmids of indicated integrins. After 48 hours, the cells were incubated with Freestyle293 medium for 3 hours and were treated with indicated concentration of irisin for 5 minutes. Cells were lysed to detect the indicated protein level using immunoblot analysis. […] Sclerostin mRNA level was analyzed by qRT-PCR. […]
100 nM irisin was incubated with 5 nM indicated his-tag integrins followed by immunoprecipitation using Ni-NTA agaroses. Precipitated integrins and co-precipitated irisin were analyzed by immunoblot analysis. […] Cells were treated and analyzed as FIG. 14B except using plasmids encoding integrin α5/β1 or integrin α11/β1 (FIG. 15C) integrin αV/β1(FIG. 15D).
MLO-Y4 cells were treated and analyzed as described in FIG. 5A with addition of pretreatment of control RGD peptide, cyclo RGDyK (cRGDyK), or SB273005. […] HEK293 cells were treated and analyzed as described in FIG. 14B except the treatment of different dose of cyclo RGDyK. […] 8 weeks old male mice were treated and analyzed as described in FIG. 5D except the additional group with co-injection of 1 mg/kg SB273005. […]

Sequence of integrin αV/β5 (P06756 31-889 limits assumed): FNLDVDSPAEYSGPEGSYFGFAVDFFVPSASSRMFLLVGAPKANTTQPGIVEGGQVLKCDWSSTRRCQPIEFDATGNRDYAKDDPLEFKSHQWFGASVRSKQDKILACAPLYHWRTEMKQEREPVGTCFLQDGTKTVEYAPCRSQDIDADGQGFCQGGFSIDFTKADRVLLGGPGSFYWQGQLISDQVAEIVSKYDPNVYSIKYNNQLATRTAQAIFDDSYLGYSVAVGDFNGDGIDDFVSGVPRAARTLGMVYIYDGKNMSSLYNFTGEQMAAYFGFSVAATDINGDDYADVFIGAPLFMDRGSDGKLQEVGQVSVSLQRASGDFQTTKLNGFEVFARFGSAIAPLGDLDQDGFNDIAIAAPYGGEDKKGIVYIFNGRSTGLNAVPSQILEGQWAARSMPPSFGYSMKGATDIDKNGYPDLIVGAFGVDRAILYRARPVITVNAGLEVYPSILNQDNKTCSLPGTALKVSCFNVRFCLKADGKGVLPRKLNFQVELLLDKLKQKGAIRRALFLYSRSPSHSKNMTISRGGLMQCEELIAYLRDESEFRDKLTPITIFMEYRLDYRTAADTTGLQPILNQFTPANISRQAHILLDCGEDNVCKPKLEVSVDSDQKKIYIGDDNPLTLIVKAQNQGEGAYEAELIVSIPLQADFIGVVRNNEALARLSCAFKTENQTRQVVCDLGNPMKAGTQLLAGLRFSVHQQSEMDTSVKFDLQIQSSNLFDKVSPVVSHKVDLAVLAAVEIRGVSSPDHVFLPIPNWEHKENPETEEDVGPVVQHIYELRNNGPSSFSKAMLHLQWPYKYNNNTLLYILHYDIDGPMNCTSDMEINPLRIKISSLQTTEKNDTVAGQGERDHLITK
Sequence of integrin αV/β5 (P06756 891-1048 partner limits assumed): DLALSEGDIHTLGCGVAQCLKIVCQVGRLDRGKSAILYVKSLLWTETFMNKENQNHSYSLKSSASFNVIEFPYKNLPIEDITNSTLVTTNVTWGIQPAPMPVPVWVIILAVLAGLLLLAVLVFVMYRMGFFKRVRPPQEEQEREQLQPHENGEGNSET
Sequence of integrin αV/β5 (P18084 24-799): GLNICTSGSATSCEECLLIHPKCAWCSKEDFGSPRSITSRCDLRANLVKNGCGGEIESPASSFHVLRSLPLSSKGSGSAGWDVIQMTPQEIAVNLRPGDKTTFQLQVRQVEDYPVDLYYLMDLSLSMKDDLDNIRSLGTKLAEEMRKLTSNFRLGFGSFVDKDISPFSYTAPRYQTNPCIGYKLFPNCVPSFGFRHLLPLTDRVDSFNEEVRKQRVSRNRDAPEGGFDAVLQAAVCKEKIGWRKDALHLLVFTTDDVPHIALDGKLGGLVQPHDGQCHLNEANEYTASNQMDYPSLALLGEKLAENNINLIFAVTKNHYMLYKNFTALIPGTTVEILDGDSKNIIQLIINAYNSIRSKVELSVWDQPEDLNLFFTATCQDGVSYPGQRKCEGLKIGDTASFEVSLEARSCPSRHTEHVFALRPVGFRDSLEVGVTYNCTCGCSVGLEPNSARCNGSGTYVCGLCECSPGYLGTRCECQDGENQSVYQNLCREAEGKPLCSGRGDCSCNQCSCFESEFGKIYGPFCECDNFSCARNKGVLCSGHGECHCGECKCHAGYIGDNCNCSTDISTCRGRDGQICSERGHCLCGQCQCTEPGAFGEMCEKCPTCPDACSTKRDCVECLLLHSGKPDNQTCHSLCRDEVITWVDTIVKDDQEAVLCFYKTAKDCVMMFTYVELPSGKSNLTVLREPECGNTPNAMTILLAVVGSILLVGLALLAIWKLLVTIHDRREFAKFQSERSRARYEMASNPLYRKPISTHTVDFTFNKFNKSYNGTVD

B1: irisin: secreted cleaved form of FNDC5; recombinant human/mouse irisin with C-terminal his tag produced in HEK293 cells (protein)
chain: DSPSAPVNVTVRHLKANSAVVSWDVLEDEVVIGFAISQQKKDVRMLRFIQEVNTTTRSCALWDLEEDTEYIVHVQAISIQGQSPASEPVLFKTPREAEKMASKNKDEVTMKE
modifications: left off: small tags and cut ends
notes: secreted cleaved form of FNDC5; recombinant human/mouse irisin with C-terminal his tag produced in HEK293 cells
  phosphorylation of FAK upon irisin treatment: enhanced level of phosphorylation of FAK
